Measurements: the Human Domainome abundance scans (Beltran et al. 2025)
± gives the uncertainty stated by the source.

B1: Apoptosis-associated speck-like protein containing a CARD, residues 114 to 194; numbered along this chain, Q9ULZ3 (parent)
chain: FIDQHRAALIARVTNVEWLLDALYGKVLTDEQYQAVRAEPTNPSKMRKLFSFTPAWNWTCKDLLLQALRESQSYLVEDLER

Variants of: B1
Assay: abundance fitness (aPCA) (normalised: wild type 0, dead -1); higher = more abundant; growth selection in yeast, the domain comes from the species named
Settings: Homo sapiens

| Variant | abundance fitness |
| --- | --- |
| FIDQHRAALIARVTNVEWLLDALYGKVLTDEQYQAVRAEPTNPSKMRKLFSFTPAWNWTCKDLLIQALRESQSYLVEDLER | -0.338 ± 0.099 |
| FIDQHRAALIARVTNVEWLLDALYGKVLTDEQYQAVRAEPTNPSKMRKLFSFTPAWNWTCKDLLNQALRESQSYLVEDLER | -0.548 ± 0.21 |
| FIDQHRAALIARVTNVEWLLDALYGKVLTDEQYQAVRAEPTNPSKMRKLFSFTPAWNWTCKDLLDQALRESQSYLVEDLER | -0.563 ± 0.099 |
| FIDQHRAALIARVTNVEWLLDALYGKVLTDEQYQAVRAEPTNPSKMRKLFSFTPAWNWTCKDLLRQALRESQSYLVEDLER | -0.361 ± 0.068 |
| FIDQHRAALIARVTNVEWLLDALYGKVLTDEQYQAVRAEPTNPSKMRKLFSFTPAWNWTCKDLLYQALRESQSYLVEDLER | -0.098 ± 0.14 |
| FIDQHRAALIARVTNVEWLLDALYGKVLTDEQYQAVRAEPTNPSKMRKLFSFTPAWNWTCKDLLAQALRESQSYLVEDLER | -0.074 ± 0.06 |
| FIDQHRAALIARVTNVEWLLDALYGKVLTDEQYQAVRAEPTNPSKMRKLFSFTPAWNWTCKDLLSQALRESQSYLVEDLER | -0.512 ± 0.07 |
| FIDQHRAALIARVTNVEWLLDALYGKVLTDEQYQAVRAEPTNPSKMRKLFSFTPAWNWTCKDLLCQALRESQSYLVEDLER | -0.248 ± 0.088 |
| FIDQHRAALIARVTNVEWLLDALYGKVLTDEQYQAVRAEPTNPSKMRKLFSFTPAWNWTCKDLLGQALRESQSYLVEDLER | -0.611 ± 0.052 |
| FIDQHRAALIARVTNVEWLLDALYGKVLTDEQYQAVRAEPTNPSKMRKLFSFTPAWNWTCKDLLHQALRESQSYLVEDLER | -0.143 ± 0.099 |
| FIDQHRAALIARVTNVEWLLDALYGKVLTDEQYQAVRAEPTNPSKMRKLFSFTPAWNWTCKDLLMQALRESQSYLVEDLER | -0.194 ± 0.091 |
| FIDQHRAALIARVTNVEWLLDALYGKVLTDEQYQAVRAEPTNPSKMRKLFSFTPAWNWTCKDLLWQALRESQSYLVEDLER | -0.172 ± 0.066 |
| FIDQHRAALIARVTNVEWLLDALYGKVLTDEQYQAVRAEPTNPSKMRKLFSFTPAWNWTCKDLLPQALRESQSYLVEDLER | -0.939 ± 0.23 |
| FIDQHRAALIARVTNVEWLLDALYGKVLTDEQYQAVRAEPTNPSKMRKLFSFTPAWNWTCKDLLFQALRESQSYLVEDLER | -0.024 ± 0.073 |
| FIDQHRAALIARVTNVEWLLDALYGKVLTDEQYQAVRAEPTNPSKMRKLFSFTPAWNWTCKDLLTQALRESQSYLVEDLER | -0.343 ± 0.096 |
| FIDQHRAALIARVTNVEWLLDALYGKVLTDEQYQAVRAEPTNPSKMRKLFSFTPAWNWTCKDLLLNALRESQSYLVEDLER | -0.529 ± 0.27 |
| FIDQHRAALIARVTNVEWLLDALYGKVLTDEQYQAVRAEPTNPSKMRKLFSFTPAWNWTCKDLLLAALRESQSYLVEDLER | -0.371 ± 0.049 |

| Variant | abundance fitness |
| --- | --- |
| FIDQHRAALIARVTNVEWLLDALYGKVLTDEQYQAVRAEPTNPSKMRKLFSFTPAWNWTCKDLLLEALRESQSYLVEDLER | -0.148 ± 0.079 |
| FIDQHRAALIARVTNVEWLLDALYGKVLTDEQYQAVRAEPTNPSKMRKLFSFTPAWNWTCKDLLLMALRESQSYLVEDLER | -0.252 ± 0.11 |
| FIDQHRAALIARVTNVEWLLDALYGKVLTDEQYQAVRAEPTNPSKMRKLFSFTPAWNWTCKDLLLSALRESQSYLVEDLER | -0.322 ± 0.066 |
| FIDQHRAALIARVTNVEWLLDALYGKVLTDEQYQAVRAEPTNPSKMRKLFSFTPAWNWTCKDLLLPALRESQSYLVEDLER | -0.48 ± 0.085 |
| FIDQHRAALIARVTNVEWLLDALYGKVLTDEQYQAVRAEPTNPSKMRKLFSFTPAWNWTCKDLLLWALRESQSYLVEDLER | -0.801 ± 0.13 |
| FIDQHRAALIARVTNVEWLLDALYGKVLTDEQYQAVRAEPTNPSKMRKLFSFTPAWNWTCKDLLLCALRESQSYLVEDLER | -0.487 ± 0.078 |
| FIDQHRAALIARVTNVEWLLDALYGKVLTDEQYQAVRAEPTNPSKMRKLFSFTPAWNWTCKDLLLLALRESQSYLVEDLER | -0.6 ± 0.078 |
| FIDQHRAALIARVTNVEWLLDALYGKVLTDEQYQAVRAEPTNPSKMRKLFSFTPAWNWTCKDLLLDALRESQSYLVEDLER | -0.174 ± 0.1 |
| FIDQHRAALIARVTNVEWLLDALYGKVLTDEQYQAVRAEPTNPSKMRKLFSFTPAWNWTCKDLLLKALRESQSYLVEDLER | -0.059 ± 0.089 |
| FIDQHRAALIARVTNVEWLLDALYGKVLTDEQYQAVRAEPTNPSKMRKLFSFTPAWNWTCKDLLLIALRESQSYLVEDLER | -0.178 ± 0.16 |
| FIDQHRAALIARVTNVEWLLDALYGKVLTDEQYQAVRAEPTNPSKMRKLFSFTPAWNWTCKDLLLHALRESQSYLVEDLER | -0.695 ± 0.37 |
| FIDQHRAALIARVTNVEWLLDALYGKVLTDEQYQAVRAEPTNPSKMRKLFSFTPAWNWTCKDLLLVALRESQSYLVEDLER | -0.481 ± 0.084 |
| FIDQHRAALIARVTNVEWLLDALYGKVLTDEQYQAVRAEPTNPSKMRKLFSFTPAWNWTCKDLLLRALRESQSYLVEDLER | -0.026 ± 0.045 |
| FIDQHRAALIARVTNVEWLLDALYGKVLTDEQYQAVRAEPTNPSKMRKLFSFTPAWNWTCKDLLLTALRESQSYLVEDLER | -0.323 ± 0.081 |
| FIDQHRAALIARVTNVEWLLDALYGKVLTDEQYQAVRAEPTNPSKMRKLFSFTPAWNWTCKDLLLQHLRESQSYLVEDLER | -0.766 ± 0.33 |
| FIDQHRAALIARVTNVEWLLDALYGKVLTDEQYQAVRAEPTNPSKMRKLFSFTPAWNWTCKDLLLQCLRESQSYLVEDLER | -0.629 ± 0.13 |
| FIDQHRAALIARVTNVEWLLDALYGKVLTDEQYQAVRAEPTNPSKMRKLFSFTPAWNWTCKDLLLQDLRESQSYLVEDLER | -1.02 ± 0.27 |
